The Immune Epitope Database (IEDB)

Assays:
HLA-A*02:01 [1] = test: IEDB peptide-MHC binding, purified MHC/competitive/fluorescence; filed as Kd, often an IC50 or EC50 that approximates it; ≥ and ≤ were set here for values at or beyond the usual limits of such assays; settings: source organism: Giardia lamblia ATCC 50803
HLA-A*02:03 = test: as above; settings: source organism: Giardia lamblia ATCC 50803
HLA-B*39:01 = test: as above
HLA-A*26:02 [2] = test: as above
HLA-A*68:02 [3] = test: as above
HLA-A*30:01 = test: as above
HLA-B*15:01 [4] = test: as above
HLA-A*26:03 = test: as above
HLA-B*07:02 = test: IEDB peptide-MHC binding, purified MHC/direct/fluorescence; filed as Kd, often an IC50 or EC50 that approximates it; ≥ and ≤ were set here for values at or beyond the usual limits of such assays
HLA-B*58:01 = test: as above
HLA-A*01:01 = test: as above
HLA-A*31:01 [5] = test: as above
HLA-B*15:17 [6] = test: as above
HLA-A*26:01 [7] = test: as above
HLA-B*18:01 = test: as above
HLA-B*57:01 = test: as above
HLA-A*11:01 [8] = test: as above
HLA-A*26:02 [9] = test: as above
HLA-B*15:01 [10] = test: IEDB peptide-MHC binding, purified MHC/competitive/fluorescence; ≥ and ≤ were set here for values at or beyond the usual limits of such assays; settings: source organism: Vaccinia virus WR
HLA-A*11:01 [11] = test: as above; settings: source organism: Vaccinia virus WR
HLA-B*15:03 = test: IEDB peptide-MHC binding, purified MHC/competitive/radioactivity; filed as Kd, often an IC50 or EC50 that approximates it; ≥ and ≤ were set here for values at or beyond the usual limits of such assays; settings: source organism: Vaccinia virus WR
HLA-B*35:01 = test: IEDB peptide-MHC binding, purified MHC/competitive/fluorescence; filed as Kd, often an IC50 or EC50 that approximates it; ≥ and ≤ were set here for values at or beyond the usual limits of such assays; settings: source organism: Vaccinia virus WR
HLA-A*31:01 [12] = test: as above; settings: source organism: Vaccinia virus WR
HLA-A*26:01 [13] = test: as above; settings: source organism: Vaccinia virus WR
HLA-A*11:01 [14] = test: as above
HLA-A*02:01 [15] = test: IEDB peptide-MHC binding, purified MHC/direct/fluorescence; filed as Kd, often an IC50 or EC50 that approximates it; ≥ and ≤ were set here for values at or beyond the usual limits of such assays
HLA-B*08:03 = test: as above; settings: source organism: Variola virus
HLA-B*27:05 = test: as above
HLA-B*15:09 [16] = test: as above; settings: source organism: Variola virus
HLA-A*68:02 [17] = test: as above; settings: source organism: Camelpox virus M-96
HLA-B*08:01 = test: as above
HLA-B*15:01 [18] = test: as above; settings: source organism: Camelpox virus M-96
HLA-B*48:01 = test: as above
HLA-A*69:01 = test: as above
HLA-B*46:01 = test: as above; settings: source organism: Camelpox virus M-96
HLA-B*15:09 [19] = test: IEDB peptide-MHC binding, purified MHC/competitive/fluorescence; filed as Kd, often an IC50 or EC50 that approximates it; ≥ and ≤ were set here for values at or beyond the usual limits of such assays
HLA-B*40:01 = test: IEDB peptide-MHC binding, purified MHC/direct/fluorescence; filed as Kd, often an IC50 or EC50 that approximates it; ≥ and ≤ were set here for values at or beyond the usual limits of such assays
HLA-B*15:17 [20] = test: IEDB peptide-MHC binding, purified MHC/competitive/fluorescence; filed as Kd, often an IC50 or EC50 that approximates it; ≥ and ≤ were set here for values at or beyond the usual limits of such assays; settings: source organism: Vaccinia virus
HLA-B*51:01 = test: IEDB peptide-MHC binding, purified MHC/direct/fluorescence; filed as Kd, often an IC50 or EC50 that approximates it; ≥ and ≤ were set here for values at or beyond the usual limits of such assays; settings: source organism: Camelpox virus M-96
HLA-A*03:01 = test: as above; settings: source organism: Variola virus
[21] = source organism: Giardia lamblia ATCC 50803
[22] = source organism: Escherichia coli O157:H7 str. EDL933
[23] = source organism: Vaccinia virus WR
[24] = source organism: Camelpox virus M-96
[25] = source organism: Francisella tularensis subsp. tularensis FSC198
[26] = source organism: Francisella tularensis subsp. holarctica LVS
[27] = source organism: Francisella tularensis subsp. tularensis FSC033
[28] = source organism: Vaccinia virus

For FMKVKFEAL, the Kd (HLA-A*02:01 [1]) was 217 nM, the Kd (HLA-A*02:03) was 29.8 nM and the Kd (HLA-B*39:01; [21]) was ≥ 20 µM. The Kd (HLA-A*26:02 [2]; [21]) was ≥ 20 µM, the Kd (HLA-A*68:02 [3]; [21]) was 4.62 µM and the Kd (HLA-A*30:01; [21]) was 4260 nM. For the same sequence, the Kd (HLA-B*15:01 [4]; [21]) was 168 nM, the Kd (HLA-A*26:03; [21]) was ≥ 20 µM and the Kd (HLA-B*07:02; [21]) was ≥ 20 µM. For the same sequence, the Kd (HLA-B*58:01; [21]) was ≥ 20 µM, the Kd (HLA-A*01:01; [21]) was ≥ 20 µM and the Kd (HLA-A*31:01 [5]; [21]) was ≥ 20 µM. For the same sequence, the Kd (HLA-B*15:17 [6]; [21]) was ≥ 20 µM, the Kd (HLA-A*26:01 [7]; [21]) was ≥ 20000 nM and the Kd (HLA-B*18:01; [21]) was ≥ 20 µM. The Kd (HLA-B*57:01; [21]) was ≥ 20 µM and the Kd (HLA-A*11:01 [8]; [21]) was ≥ 20 µM.

FTHREQLFM gave a Kd (HLA-A*26:02 [9]; [22]) of 28 nM and a Kd (HLA-A*26:01 [7]; [22]) of 59 nM.

In the case of IQFMHEQGY, the IC50 (HLA-B*15:01 [10]) is reported as 6.83 µM, the IC50 (HLA-A*11:01 [11]) is reported as ≥ 108 µM and the Kd (HLA-B*15:03) is reported as 3.66 nM. The Kd (HLA-B*35:01) was 104 nM, the Kd (HLA-A*26:02 [2]; [23]) was ≥ 20 µM and the Kd (HLA-A*30:01; [23]) was 2.4 nM. For the same sequence, the Kd (HLA-A*31:01 [12]) was ≥ 20 µM, the Kd (HLA-A*26:01 [13]) was ≥ 20 µM and the Kd (HLA-A*11:01 [14]; [23]) was ≥ 20 µM. The Kd (HLA-A*02:01 [15]; [24]) was ≥ 20 µM, the Kd (HLA-B*08:03) was ≥ 20 µM and the Kd (HLA-B*27:05; [24]) was 0.929 µM. For the same sequence, the Kd (HLA-B*07:02; [24]) was ≥ 20 µM, the Kd (HLA-B*58:01; [24]) was ≥ 20 µM and the Kd (HLA-B*15:09 [16]) was ≥ 20 µM. For the same sequence, the Kd (HLA-A*68:02 [17]) was ≥ 20 µM, the Kd (HLA-A*01:01; [24]) was ≥ 20 µM and the Kd (HLA-B*08:01; source organism: Variola virus) was ≥ 20 µM. For the same sequence, the Kd (HLA-B*15:01 [18]) was 52 nM, the Kd (HLA-B*48:01; [24]) was ≥ 20 µM and the Kd (HLA-B*15:17 [6]; [24]) was 0.29 µM. For the same sequence, the Kd (HLA-B*57:01; [24]) was 1.96 µM, the Kd (HLA-A*69:01; [24]) was ≥ 20 µM and the Kd (HLA-B*46:01) was ≥ 20 µM.

PTIPEQKCM was tested, and the Kd (HLA-A*26:03; source organism: Entamoeba histolytica HM-1:IMSS) was ≥ 20 µM.

For REMGIVDLL, the Kd (HLA-B*39:01; [25]) was 4 µM, the Kd (HLA-B*15:09 [19]; [25]) was ≥ 20 µM and the Kd (HLA-A*68:02 [3]; [25]) was ≥ 20 µM. For the same sequence, the Kd (HLA-A*02:01 [15]; [26]) was ≥ 20 µM, the Kd (HLA-B*27:05; [26]) was ≥ 20 µM and the Kd (HLA-A*26:02 [9]; [27]) was ≥ 20000 nM. The Kd (HLA-B*07:02; [26]) was ≥ 20 µM, the Kd (HLA-B*58:01; [26]) was ≥ 20 µM and the Kd (HLA-A*01:01; [26]) was ≥ 20 µM. The Kd (HLA-A*31:01 [5]; [26]) was ≥ 20 µM, the Kd (HLA-B*08:01; [27]) was ≥ 20 µM and the Kd (HLA-B*48:01; [26]) was 0.0932 µM. The Kd (HLA-B*15:17 [6]; [26]) was ≥ 20 µM, the Kd (HLA-B*40:01; [26]) was 1.4 nM and the Kd (HLA-B*18:01; [26]) was 0.514 µM. For the same sequence, the Kd (HLA-B*57:01; [26]) was ≥ 20 µM, the Kd (HLA-A*69:01; [26]) was ≥ 20 µM and the Kd (HLA-A*11:01 [8]; [26]) was ≥ 20 µM.

With RVATENIAV the Kd (HLA-B*39:01; [28]) was 2.81 µM, the Kd (HLA-B*15:09 [19]; [28]) was ≥ 20 µM and the Kd (HLA-B*15:01 [4]; [28]) was 444 nM. The Kd (HLA-B*15:17 [20]) was ≥ 20 µM, the Kd (HLA-A*11:01 [14]; [28]) was ≥ 20 µM and the Kd (HLA-A*02:01 [15]; [24]) was 0.0227 µM. The Kd (HLA-B*27:05; [24]) was ≥ 20 µM, the Kd (HLA-B*07:02; [24]) was 0.226 µM and the Kd (HLA-B*58:01; [24]) was ≥ 20 µM. The Kd (HLA-A*01:01; [24]) was ≥ 20 µM, the Kd (HLA-A*31:01 [5]; [24]) was ≥ 20 µM and the Kd (HLA-B*08:01; source organism: Variola virus) was ≥ 20 µM. The Kd (HLA-B*51:01) was ≥ 20 µM, the Kd (HLA-B*48:01; [24]) was ≥ 20 µM and the Kd (HLA-B*40:01; [24]) was ≥ 20000 nM. For the same sequence, the Kd (HLA-B*18:01; [24]) was ≥ 20 µM, the Kd (HLA-B*57:01; [24]) was ≥ 20 µM and the Kd (HLA-A*03:01) was ≥ 20 µM. The Kd (HLA-A*69:01; [24]) was 0.156 µM and the Kd (HLA-B*46:01) was ≥ 20 µM.

With STPAILHIM the Kd (HLA-A*26:02 [9]; source organism: Listeria monocytogenes serotype 4b str. H7858) was 3 nM.
